Experimental data published in the supplement of paper PMC10899765.

tested on: MCF10A; test: one-nucleolus phenotype percent effect (relative to siNT 0% and siNOL11 100%); higher = more cells with one nucleolus (ribosome biogenesis inhibition); settings: 20 nM; 72 h
Description: (§1)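 After 72 h, cells were fixed and stained with Hoechst and anti-fibrillarin, and nucleoli per nucleus were counted with CellProfiler. Values are plate-adjusted percent effect for the one-nucleolus and 5+ nucleoli phenotypes, normalised to siNT (0%) and to the positive controls siNOL11 or siKIF11 (100%), as the mean of biological triplicates. Percent viability is the nuclei count relative to siNT.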

Sequence	one-nucleolus phenotype percent effect [%]
CUGCCAGCCCCGUUCCAGGGCA [hsa-miR-3972]	-2.85
GAGGUUUGGGGAGGAUUUGCU [hsa-miR-4748]	39.1
GCUGGUCUGCGUGGUGCUCGG [hsa-miR-3663-5p]	-23.3
AUGCACCUGGGCAAGGAUUCUG [hsa-miR-500a-3p]	-2.54
AAGCCCUUACCCCAAAAAGCAU [hsa-miR-129-2-3p]	24
UGUCUCUGCUGGGGUUUCU [hsa-miR-593-3p]	55.4
ACUGGACUUGGAGGCAGAA [hsa-miR-378b]	9.39
UGCCCUGAGACUUUUGCUC [hsa-miR-7976]	17.4
UGCACCAUGGUUGUCUGAGCAUG [hsa-miR-767-5p]	-10.3
AUCACAUUGCCAGGGAUUACC [hsa-miR-23b-3p]	0.34
AAAAGUAAUUGUGGUUUUUGC [hsa-miR-548ay-5p]	-28.5
UAAGGGGUGUAUGGCAGAUGCA [hsa-miR-3936]	36.7
UUAGCGGUGGACCGCCCUGCG [hsa-miR-4321]	-12.2
UGCGCCUCGGGUGAGCAUG [hsa-miR-668-5p]	-14.2
CCUGGACACCGCUCAGCCGGCCG [hsa-miR-4638-3p]	-15.8
AGGAGAGUGGAUUCCAGGUGGU [hsa-miR-5192]	10.4
UAACACUGUCUGGUAAAGAUGG [hsa-miR-141-3p]	-19.9
GCGACCCAUACUUGGUUUCAG [hsa-miR-551b-3p]	-14.5
AGAGAAGAAGAUCAGCCUGCA [hsa-miR-1253]	-16.8
UAACGCAUAAUAUGGACAUGU [hsa-miR-3912]	-23.9
AUCGUGCAUCCCUUUAGAGUGU [hsa-miR-517b-3p]	14.6
CAAAGAAUUCUCCUUUUGGGCU [hsa-miR-186-5p]	-14.6
AUUGUCCCUCUCCCUUCCCAG [hsa-miR-4646-3p]	-0.307
CAGCCAGCCCCUGCUCACCCCU [hsa-miR-6858-3p]	16.5
GUGGGUACGGCCCAGUGGGGGG [hsa-miR-1225-5p]	-23.1
UAAUGAUUCAUCAGACUCAGAU [hsa-miR-580-5p]	14
ACCCCUGCCACUCACUGGCC [hsa-miR-6801-3p]	-4.08
UGUAGGAACAGUUGAAUUUUGGCU [hsa-miR-8065]	-24.6
ACAUUGCCAGGGAGUUU [hsa-miR-4317]	-2.43
UCACCCUGCAUCCCGCACCCAG [hsa-miR-3620-3p]	-11.9

tested on: MCF10A; test: 5+ nucleoli phenotype percent effect (relative to siNT 0% and siKIF11 100%); higher = more cells with five or more nucleoli; settings: 20 nM; 72 h
Description: as §1

Sequence	5+ nucleoli phenotype percent effect [%]
GUCCUCCAGGCCAUGAGCUGCGG [hsa-miR-4691-5p]	47.9
UUUGGCAAUGGUAGAACUCACACU [hsa-miR-182-5p]	13.1
CUCGGGCGGAGGUGGUUGAGUG [hsa-miR-4750-5p]	-7.37
CACUGUUUCCUUUCUGAGUGGA [hsa-miR-892c-3p]	-29.1
AUCAACAGACAUUAAUUGGGCGC [hsa-miR-421]	-13.6
ACAACAGUGACUUGCUCUCCAA [hsa-miR-4709-5p]	-18.3
CUUCUUGUGCUCUAGGAUUGU [hsa-miR-578]	-13.1
UGAGGUGACCGCAGAUGGGAA [hsa-miR-7854-3p]	-6.86
UUUAACAUGGGGGUACCUGCUG [hsa-miR-302c-5p]	22.3
AAAGACCCAUUGAGGAGAAGGU [hsa-miR-3667-5p]	-13.6
AGGCAUGGGAGGUCAGGUGA [hsa-miR-3622b-5p]	-30.6
CCUCCAAAGGGAAGCGCUUUCUGUU [hsa-miR-519d-5p]	21.8
AGGAGAAGUCGGGAAGGU [hsa-miR-5703]	33.6
CAAGCUCGCUUCUAUGGGUCUG [hsa-miR-99a-3p]	-16.1
AUGGCCAGAGCUCACACAGAGG [hsa-miR-4435]	40.9
UGGCCCGGCGACGUCUCACGGUC [hsa-miR-4745-3p]	45
GCAGUCCAUGGGCAUAUACAC [hsa-miR-455-3p]	26.8
UAAUCUCAGCUGGCAACUGUGA [hsa-miR-216a-5p]	-8.01
CGGGGCAGCUCAGUACAGGAU [hsa-miR-486-3p]	-5.42
GGUGGGGGGUGUUGUUUU [hsa-miR-4472]	11.6

Sequence	5+ nucleoli phenotype percent effect [%]
CGGGCUGUCCGGAGGGGUCGGCU [hsa-miR-4741]	42.5
GCAGAGAACAAAGGACUCAGU [hsa-miR-3919]	-14.9
UAACGGCCGCGGUACCCUAA [hsa-miR-4485]	-19.2
UUGGCCACCACACCUACCCCUU [hsa-miR-4701-5p]	19.1
CAGGCAGAAGUGGGGCUGACAGG [hsa-miR-6511a-5p]	3.66
GAAGAUGGACGUACUUU [hsa-miR-4426]	-32.9
GCAGGAACUUGUGAGUCUCCU [hsa-miR-873-5p]	31.2
UUGUGAAGAAAGAAAUUCUUA [hsa-miR-3611]	-15.1
GCUCAUCCCCAUCUCCUUUCAG [hsa-miR-6870-3p]	36.6
CUGCCAGCCCCGUUCCAGGGCA [hsa-miR-3972]	-1.63
GAGGUUUGGGGAGGAUUUGCU [hsa-miR-4748]	-23.1
GCUGGUCUGCGUGGUGCUCGG [hsa-miR-3663-5p]	52.4
AUGCACCUGGGCAAGGAUUCUG [hsa-miR-500a-3p]	-12.9
AAGCCCUUACCCCAAAAAGCAU [hsa-miR-129-2-3p]	-31.7
UGUCUCUGCUGGGGUUUCU [hsa-miR-593-3p]	-39.2
ACUGGACUUGGAGGCAGAA [hsa-miR-378b]	-14.2
UGCCCUGAGACUUUUGCUC [hsa-miR-7976]	-8.65
UGCACCAUGGUUGUCUGAGCAUG [hsa-miR-767-5p]	8.28
AUCACAUUGCCAGGGAUUACC [hsa-miR-23b-3p]	-9.04
AAAAGUAAUUGUGGUUUUUGC [hsa-miR-548ay-5p]	28.7

Sequence	5+ nucleoli phenotype percent effect [%]
UAAGGGGUGUAUGGCAGAUGCA [hsa-miR-3936]	-17.6
UUAGCGGUGGACCGCCCUGCG [hsa-miR-4321]	3.56
UGCGCCUCGGGUGAGCAUG [hsa-miR-668-5p]	37.3
CCUGGACACCGCUCAGCCGGCCG [hsa-miR-4638-3p]	8.98
AGGAGAGUGGAUUCCAGGUGGU [hsa-miR-5192]	20.1
UAACACUGUCUGGUAAAGAUGG [hsa-miR-141-3p]	44.6
GCGACCCAUACUUGGUUUCAG [hsa-miR-551b-3p]	23.7
AGAGAAGAAGAUCAGCCUGCA [hsa-miR-1253]	37.9
UAACGCAUAAUAUGGACAUGU [hsa-miR-3912]	27.3
AUCGUGCAUCCCUUUAGAGUGU [hsa-miR-517b-3p]	-20.3
CAAAGAAUUCUCCUUUUGGGCU [hsa-miR-186-5p]	42.9
AUUGUCCCUCUCCCUUCCCAG [hsa-miR-4646-3p]	-1.47
CAGCCAGCCCCUGCUCACCCCU [hsa-miR-6858-3p]	3.04
GUGGGUACGGCCCAGUGGGGGG [hsa-miR-1225-5p]	64.9
UAAUGAUUCAUCAGACUCAGAU [hsa-miR-580-5p]	-17.8
ACCCCUGCCACUCACUGGCC [hsa-miR-6801-3p]	1.82
UGUAGGAACAGUUGAAUUUUGGCU [hsa-miR-8065]	19.8
ACAUUGCCAGGGAGUUU [hsa-miR-4317]	-11
UCACCCUGCAUCCCGCACCCAG [hsa-miR-3620-3p]	11.8
